The chains are these.
B1: wild-type N-terminal domain of major ampullate spidroin 1 (MaSp1) from Euprosthenops australis [Euprosthenops australis] / itself (parent)
chain: SHTTPWTNPGLAENFMNSFMQGLSSMPGFTASQLDDMSTIAQSMVQSIQSLAAQGRTSPNKLQALNMAFASSMAEIAASEEGGGSLSTKTSSIASAMSNAFLQTTGVVNQPFINEITQLVSMFAQAGMNDVSA

The values that follow come from PMC6763431, “Methionine in a protein hydrophobic core drives tight interactions required for assembly of spider silk” (Nature Communications, 2019).

One may read the Kd as a measure of binding affinity in units of concentration.

The variants in this test derive from B1. The test can be described thus: high-resolution SEC. The note with it: with itself; read off a plot.
With SHTTPWTNPGLAENFLNSFLQGLSSMPGFTASQLDDLSTIAQSMVQSIQSLAAQGRTSPNKLQALNMAFASSMAEIAASEEGGGSLSTKTSSIASAMSNAFLQTTGVVNQPFINEITQLVSMFAQAGMNDVSA [chain 1 M16L M20L M37L], the Kd amounted to 750 nM.

SHTTPWTNPGLAENFLNSFLQGLSSMPGFTASQLDDMSTIAQSMVQSIQSLAAQGRTSPNKLQALNMAFASSMAEIAASEEGGGSLSTKTSSIASAMSNAFLQTTGVVNQPFINEITQLVSMFAQAGMNDVSA [chain 1 M16L M20L]: the dissociation constant Kd was determined as 160 nM.

On to SHTTPWTNPGLAENFLNSFLQGLSSMPGFTASQLDDLSTIAQSLVQSIQSLAAQGRTSPNKLQALNMAFASSLAEIAASEEGGGSLSTKTSSIASAMSNAFLQTTGVVNQPFINEITQLVSMFAQAGMNDVSA [chain 1 M16L M20L M37L M44L M73L], for which the dissociation constant (Kd) came out at 1000 nM.

Regarding SHTTPWTNPGLAENFLNSFLQGLSSMPGFTASQLDDLSTIAQSLVQSIQSLAAQGRTSPNKLQALNMAFASSMAEIAASEEGGGSLSTKTSSIASAMSNAFLQTTGVVNQPFINEITQLVSMFAQAGMNDVSA [chain 1 M16L M20L M37L M44L], the Kd stood at 660 nM.
